Tests used:
α-synuclein = α-synuclein (UniProt P37840 1-140); experiment: native mass spectrometry of α-synuclein incubated with the CCR
Procedure: Nanoflow electrospray ionization MS and tandem MS experiments were conducted under non-denaturing conditions on a QToF Q-Star Elite instrument (MDS Sciex, Canada), modified for improved transmission of large non-covalent complexes, or an Q-Exactive Plus Orbitrap EMR (ThermoFisher Scientific). Before MS analysis, 20 μl of up to 100 mM sample was buffer exchanged into 0.5-1 M ammonium acetate pH 7.5, using Bio-Spin columns (Bio-Rad). Sample concentrations were determined by ultraviolet absorbance. Assays were performed in positive ion mode and conditions were optimized to enable the ionization and removal of adducts, without disrupting the non-covalent interactions of the proteins tested. In tandem MS experiments, the relevant m/z values were isolated and argon gas was admitted to the collision cell. […] The following experimental parameters were used on the QToF Q-Star Elite instrument: capillary voltage up to 1.1 kV, declustering potential up to 220 V, focusing potential up to 240 V, a second declustering potential of 15 V, collision energy of between 20 and 200 V and an MCP of 2,350 V. The following experimental conditions were used on the Q-Exactive Plus Orbitrap EMR: capillary voltage 1.7 kV, MS spectra were recorded at low resolution (5000), and the HCD cell voltage was set to 20-50 V, at trapping gas pressure setting of 3.9. […]

[1] = target: T1, T. acidophilum (Archaea) 20S proteasome (T. acidophilum, UniProt P25156 1-233; P28061 9-211); experiment: native MS with MS/MS of the isolated 20S proteasome peak
T1 construct: Assembled in vitro as α7β7β7α7; also called archaeal 20S proteasome; 20S proteasome from T. acidophilum
Procedure: Nanoflow electrospray ionization MS and tandem MS experiments were conducted under non-denaturing conditions on a QToF Q-Star Elite instrument (MDS Sciex, Canada), modified for improved transmission of large non-covalent complexes, or an Q-Exactive Plus Orbitrap EMR (ThermoFisher Scientific). Before MS analysis, 20 μl of up to 100 mM sample was buffer exchanged into 0.5-1 M ammonium acetate pH 7.5, using Bio-Spin columns (Bio-Rad). Sample concentrations were determined by ultraviolet absorbance. Assays were performed in positive ion mode and conditions were optimized to enable the ionization and removal of adducts, without disrupting the non-covalent interactions of the proteins tested. In tandem MS experiments, the relevant m/z values were isolated and argon gas was admitted to the collision cell. […] The following experimental parameters were used on the QToF Q-Star Elite instrument: capillary voltage up to 1.1 kV, declustering potential up to 220 V, focusing potential up to 240 V, a second declustering potential of 15 V, collision energy of between 20 and 200 V and an MCP of 2,350 V. The following experimental conditions were used on the Q-Exactive Plus Orbitrap EMR: capillary voltage 1.7 kV, MS spectra were recorded at low resolution (5000), and the HCD cell voltage was set to 20-50 V, at trapping gas pressure setting of 3.9.

[2] = target: T1, T. acidophilum (Archaea) 20S proteasome; experiment: peptide array of overlapping T. acidophilum 20S proteasome peptides

T1 sequence (P25156 whole entry, chain 1 of 2): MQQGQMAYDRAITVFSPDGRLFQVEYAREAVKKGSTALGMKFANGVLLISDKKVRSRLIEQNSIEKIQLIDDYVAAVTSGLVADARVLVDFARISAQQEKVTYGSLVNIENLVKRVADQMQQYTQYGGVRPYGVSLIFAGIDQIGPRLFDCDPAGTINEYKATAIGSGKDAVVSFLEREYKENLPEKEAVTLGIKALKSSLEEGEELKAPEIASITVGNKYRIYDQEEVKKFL
T1 sequence (P28061 9-211, chain 2 of 2): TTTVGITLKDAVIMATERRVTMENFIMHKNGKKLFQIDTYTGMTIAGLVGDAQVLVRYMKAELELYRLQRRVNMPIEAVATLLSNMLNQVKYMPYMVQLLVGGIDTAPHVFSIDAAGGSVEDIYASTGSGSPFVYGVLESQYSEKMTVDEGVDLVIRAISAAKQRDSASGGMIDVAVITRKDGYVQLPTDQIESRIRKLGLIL

B1: human PGDH with a C-terminal 6His tag (enzyme)
chain: MHVNGKVALVTGAAQGIGRAFAEALLLKGAKVALVDWNLEAGVQCKAALDEQFEPQKTLFIQCDVADQQQLRDTFRKVVDHFGRLDILVNNAGVNNEKNWEKTLQINLVSVISGTYLGLDYMSKQNGGEGGIIINMSSLAGLMPVAQQPVYCASKHGIVGFTRSAALAANLMNSGVRLNAICPGFVNTAILESIEKEENMGQYIEYKDHIKDMIKYYGILDPPLIANGLITLIEDDALNGAIMKITTSKGIHFQDYDTTPFQAKTQ
notes: also called PGDH-His; not shown: C-terminal 6His tag
- binding result (α-synuclein): no binding

B2: human DJ-1 (other, UniProt Q99497 1-189, looked up)
chain: MASKRALVILAKGAEEMETVIPVDVMRRAGIKVTVAGLAGKDPVQCSRDVVICPDASLEDAKKEGPYDVVVLPGGNLGAQNLSESAAVKEILKEQENRKGLIAAICAGPTALLAHEIGFGSKVTTHPLAKDKMMNGGHYTYSENRVEKDGLILTSRGPGTSFEFALAIVEALNGKEVAAQVKAPLVLKD
notes: also called PARK7
- binding result [1]: binds

B3: human CBR3 (recombinant, His tag removed) (enzyme, UniProt O75828 1-277, looked up)
chain: MSSCSRVALVTGANRGIGLAIARELCRQFSGDVVLTARDVARGQAAVQQLQAEGLSPRFHQLDIDDLQSIRALRDFLRKEYGGLNVLVNNAAVAFKSDDPMPFDIKAEMTLKTNFFATRNMCNELLPIMKPHGRVVNISSLQCLRAFENCSEDLQERFHSETLTEGDLVDLMKKFVEDTKNEVHEREGWPNSPYGVSKLGVTVLSRILARRLDEKRKADRILVNACCPGPVKTDMDGKDSIRTVEEGAETPVYLALLPPDATEPQGQLVHDKVVQNW
- binding result (α-synuclein): no binding
- binding result [2]: binds

Reference: patent US20200362018A1 (YEDA RESEARCH AND DEVELOPMENT, published 2020)
